Literature values, collected in publication PMC8865373.
pKd: −log10 of the molar value. Like-named read-outs stand apart in the source and are kept apart here.

Key:
CBP TAZ2 TAZ2 [1] = molecular target: CBP TAZ2 TAZ2 (UniProt P45481)
CBP TAZ2 TAZ2 [2] = molecular target: CBP TAZ2 TAZ2 (UniProt P45481); remark: listed apart in the source

Sequence of CBP TAZ2 TAZ2 (P45481 1764-1855): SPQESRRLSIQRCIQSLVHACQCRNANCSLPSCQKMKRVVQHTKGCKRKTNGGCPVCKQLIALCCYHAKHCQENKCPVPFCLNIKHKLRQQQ
Sequence of p53 AD1 AD1 (P04637 13-37): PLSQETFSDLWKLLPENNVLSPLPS
Sequence of HPV E7 (P03129 whole entry): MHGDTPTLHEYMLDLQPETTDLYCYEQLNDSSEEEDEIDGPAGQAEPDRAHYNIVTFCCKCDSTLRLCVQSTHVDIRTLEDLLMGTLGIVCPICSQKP

Substance	pKd (CBP TAZ2 TAZ2 [1])	pKd (CBP TAZ2 TAZ2 [2])
HPV E7 (from UniProt P03129)	7.66	–
p53 AD1 AD1 (from UniProt P04637)	–	4.62
